{"source": "patent US20190016800A1", "about": "(NANJING LEADS BIOLABS, published 2019)", "binders": {"B1": {"name": "clone 8# as single chain Fv displayed on phage (scFv)", "scFv": "QVQLQESGGGVVRPGGSLRLSCAASGFTFDDYGMSWVRQAPGKGLEWVSGINWSGGSTYYADSVKGRSTISRDNSKNTLYLQMNSLRAEDTAVYYCATGGYWGQGTLVTVSSSGGSTITSYNVYYTKLSSSGTSYELTQPPSVSVSPGQTASITCSGDKLGDKYTSWYQQKPGQSPLLVIYQSTKRPSGIPERFSGSNSGDTATLTISGTQPMDEADYYCQAWDSSTAVFGGGTKLTVLG"}, "B2": {"name": "anti-LAG-3 antibody 2# (antibody, V domains shown)", "VH": "QVQLQESGGGVVRPGGSLRLSCAASGFTFDDYGMSWVRQAPGKGLEWVSGINWSGGSTYYADSVKGRSTISRDNSKNTLYLQMNSLRAEDTAVYYCATGGYWGQGTLVTVSS", "VL": "not shown", "notes": "elsewhere IgG4 is preferred; also called Clone 2#; clone #2"}, "B3": {"name": "anti-LAG-3 antibody 8# (antibody, human IgG4 S228P, lambda, V domains shown)", "VH": "B2 VH", "VL": "SYELTQPPSVSVSPGQTASITCSGDKLGDKYTSWYQQKPGQSPLLVIYQSTKRPSGIPERFSGSNSGDTATLTISGTQPMDEADYYCQAWDSSTAVFGGGTKLTVLG", "notes": "also called Clone 8#; Clone 8"}, "B4": {"name": "anti-LAG-3 antibody 13# (antibody, human IgG4 S228P, lambda, V domains shown)", "VH": "B2 VH", "VL": "not shown", "notes": "The VH is the same as that of clone 8; also called Clone 13#; Clone 13"}, "B5": {"name": "clone 6# as single chain Fv displayed on phage (scFv)", "scFv": "QVQLVQSGGGVVQPGRSLRLPCAASGFTFSSYGMHWVRQAPGKGLEWVAAISYDGSNKYYADSVKGRFTISRDNSKNTLYLQMNSLRAEDTAVYYCAREGSYYLEGIDYWGQGTLVTVSSSGGSTITSYNVYYTKLSSSGTQSVLTQPPSVSEAPRQRVTISCSGSSSNIGDNAVNWYQQLPGKAPTLLIYYDDLLPSGVPDRFSGSKSGTSASLAISGLQSEDEAEYYCAAWDDSLKGYVFGTGTKLTVLG"}, "B6": {"name": "anti-LAG-3 antibody 6# (antibody, human IgG4 S228P, lambda, V domains shown)", "VH": "QVQLVQSGGGVVQPGRSLRLPCAASGFTFSSYGMHWVRQAPGKGLEWVAAISYDGSNKYYADSVKGRFTISRDNSKNTLYLQMNSLRAEDTAVYYCAREGSYYLEGIDYWGQGTLVTVSS", "VL": "QSVLTQPPSVSEAPRQRVTISCSGSSSNIGDNAVNWYQQLPGKAPTLLIYYDDLLPSGVPDRFSGSKSGTSASLAISGLQSEDEAEYYCAAWDDSLKGYVFGTGTKLTVLG", "notes": "also called Clone 6#; Clone 6"}}, "key": {"[1]": {"target": "T1, Human LAG-3 protein (Cat#LA3-5222, Acrobiosystems) (human, UniProt P18627 23-450)", "T1 construct": "Bought protein; also called recombinant human LAG-3; LAG3 recombinant protein", "T1 sequence": "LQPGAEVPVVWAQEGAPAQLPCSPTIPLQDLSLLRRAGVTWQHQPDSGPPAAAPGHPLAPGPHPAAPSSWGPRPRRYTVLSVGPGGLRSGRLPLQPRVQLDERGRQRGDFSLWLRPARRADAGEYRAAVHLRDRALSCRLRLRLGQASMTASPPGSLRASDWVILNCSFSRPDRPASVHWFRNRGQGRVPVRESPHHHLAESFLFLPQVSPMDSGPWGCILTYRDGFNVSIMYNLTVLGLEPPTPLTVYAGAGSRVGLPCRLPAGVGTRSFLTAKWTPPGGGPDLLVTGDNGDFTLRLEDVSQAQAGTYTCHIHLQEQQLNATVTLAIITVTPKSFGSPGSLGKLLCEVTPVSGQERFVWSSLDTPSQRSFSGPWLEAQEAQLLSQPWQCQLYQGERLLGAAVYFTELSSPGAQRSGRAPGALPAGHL", "assay": "phage ELISA on coated LAG3"}, "[2]": {"target": "T2, LAG-3 fusion protein comprising human LAG-3 extracellular domain fused to mouse Fc (SinoBiological, … (human; mouse, UniProt P18627 23-450)", "T2 construct": "Bought fusion protein; not shown: mouse Fc", "T2 sequence": "T1 sequence", "assay": "flow cytometry blocking assay: antibody premixed with hLAG-3-mFc, binding of hLAG-3-mFc to MHC class II on Daudi cells read as MFI"}, "[3]": {"target": "T3, human CD4 recombinant protein (Sino Biological) (human, UniProt P01730 26-390, limits assumed)", "T3 construct": "Bought protein", "assay": "ELISA, human CD4 recombinant protein immobilized"}, "[4]": {"target": "T4, Mouse LAG-3 (Acrobiosystems) (mouse, UniProt Q61790 24-442, limits assumed)", "T4 construct": "Bought protein; also called mouse LAG-3 recombinant protein", "T4 sequence (looked up)": "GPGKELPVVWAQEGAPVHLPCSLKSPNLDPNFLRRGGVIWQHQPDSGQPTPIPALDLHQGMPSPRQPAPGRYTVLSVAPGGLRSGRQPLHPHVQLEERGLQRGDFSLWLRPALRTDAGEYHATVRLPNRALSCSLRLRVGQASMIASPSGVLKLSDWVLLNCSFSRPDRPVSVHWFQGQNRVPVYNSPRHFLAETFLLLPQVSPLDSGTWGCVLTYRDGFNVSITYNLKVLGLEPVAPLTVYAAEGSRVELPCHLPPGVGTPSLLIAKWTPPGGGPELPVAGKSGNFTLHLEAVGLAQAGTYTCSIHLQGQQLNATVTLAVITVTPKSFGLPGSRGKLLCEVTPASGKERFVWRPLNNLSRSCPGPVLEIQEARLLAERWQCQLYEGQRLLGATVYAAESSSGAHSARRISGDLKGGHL", "assay": "ELISA, mouse LAG-3 recombinant protein immobilized"}, "[5]": {"target": "cynomolgus monkey LAG-3 protein (Cat#LA3-C52A0, Acrobiosystems) (cynomolgus monkey)", "assay": "BLI ForteBio Octet RED 96, biotin labeled antibody on streptavidin sensor, antigen 3.125-100 nM, 1:1 fit"}, "[6]": {"target": "T1, Human LAG-3 protein (Cat#LA3-5222, …)", "assay": "BLI ForteBio Octet RED 96, biotin labeled antibody on streptavidin sensor, antigen 3.125-100 nM, 1:1 fit"}, "[7]": {"target": "T5, recombinant rhesus monkey LAG-3 protein (Amino acids 1-450 of XM_001108923.3 fused to human IgG1 Fc domain) (rhesus monkey; human, UniProt P18627 23-450)", "T5 construct": "not shown: human IgG1 Fc domain", "T5 chain": "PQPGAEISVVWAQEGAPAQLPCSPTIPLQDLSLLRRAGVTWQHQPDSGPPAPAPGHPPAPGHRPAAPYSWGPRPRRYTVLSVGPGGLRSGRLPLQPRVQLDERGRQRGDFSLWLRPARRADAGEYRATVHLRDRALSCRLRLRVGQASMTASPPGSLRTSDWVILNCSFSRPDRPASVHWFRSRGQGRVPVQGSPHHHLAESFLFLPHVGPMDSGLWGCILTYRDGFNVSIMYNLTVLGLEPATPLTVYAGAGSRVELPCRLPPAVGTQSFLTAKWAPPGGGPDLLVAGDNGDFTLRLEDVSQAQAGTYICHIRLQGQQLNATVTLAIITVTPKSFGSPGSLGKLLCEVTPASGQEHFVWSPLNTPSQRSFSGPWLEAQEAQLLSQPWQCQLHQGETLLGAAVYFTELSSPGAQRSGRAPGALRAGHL", "assay": "BLI ForteBio Octet RED 96, biotin labeled antibody on streptavidin sensor, antigen 3.125-100 nM, 1:1 fit"}, "[8]": {"target": "T1, Human LAG-3 protein (Cat#LA3-5222, …)", "assay": "ELISA, human LAG-3 recombinant protein immobilized, serially diluted antibody, anti-human IgG-HRP, OD450-620"}, "[9]": {"target": "T6, Recombinant LAG-3 domain 1-2 (Amino acid 1-262) fused to human IgG1 Fc domain (human, UniProt P18627 23-262)", "T6 construct": "also called domain 1-2 of human LAG-3; not shown: human IgG1 Fc domain", "T6 sequence": "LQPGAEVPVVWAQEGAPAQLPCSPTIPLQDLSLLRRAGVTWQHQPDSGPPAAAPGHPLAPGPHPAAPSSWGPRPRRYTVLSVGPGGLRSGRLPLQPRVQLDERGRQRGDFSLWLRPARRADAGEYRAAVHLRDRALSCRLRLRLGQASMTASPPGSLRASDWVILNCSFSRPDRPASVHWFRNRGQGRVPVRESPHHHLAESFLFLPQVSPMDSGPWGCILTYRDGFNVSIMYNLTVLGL", "assay": "ELISA, human LAG-3 domain 1-2 Fc fusion immobilized, serially diluted antibody, anti-human F(ab')2-HRP, OD450-620"}, "[10]": {"target": "T1, Human LAG-3 protein (Cat#LA3-5222, …)", "assay": "ELISA blocking assay: human LAG-3 immobilized, antibody mixed with biotin labeled LSECtin, streptavidin-HRP, OD450-620"}, "[11]": {"target": "T1, Human LAG-3 protein (Cat#LA3-5222, …)", "assay": "SPR Biacore T200, antibody captured on anti-human IgG (Fc), human LAG-3 injected 6.25-200 nM, 1:1 Langmuir fit"}}}
{"binder": "B1", "values": [{"measurement": "binding result", "setting": "[1]", "result": "binds"}]}
{"binder": "B2", "values": [{"measurement": "IC50", "setting": "[2]", "result": 11.5, "unit": "nM"}, {"measurement": "binding result", "setting": "[3]", "result": "no binding (tested: about 20 nM)"}, {"measurement": "binding result", "setting": "[4]", "result": "no binding (tested: about 10 nM)"}, {"measurement": "Kd", "setting": "[5]", "result": 1.27, "unit": "nM"}, {"measurement": "koff", "setting": "[5]", "result": 0.00058, "unit": "s⁻¹"}, {"measurement": "kon", "setting": "[5]", "result": 457000, "unit": "M⁻¹ s⁻¹"}, {"measurement": "Kd", "setting": "[6]", "result": 0.13, "unit": "nM"}, {"measurement": "koff", "setting": "[6]", "result": "3.65e-05", "unit": "s⁻¹"}, {"measurement": "kon", "setting": "[6]", "result": 280000, "unit": "M⁻¹ s⁻¹"}, {"measurement": "Kd", "setting": "[7]", "result": 1.22, "unit": "nM"}, {"measurement": "koff", "setting": "[7]", "result": 0.000676, "unit": "s⁻¹"}, {"measurement": "kon", "setting": "[7]", "result": 554000, "unit": "M⁻¹ s⁻¹"}, {"measurement": "EC50", "setting": "[8]", "result": 0.105, "unit": "nM"}, {"measurement": "EC50", "setting": "[9]", "result": 0.228, "unit": "nM"}, {"measurement": "IC50", "setting": "[10]", "result": 6.48, "unit": "nM"}, {"measurement": "Kd", "setting": "[11]", "result": 0.348, "unit": "nM"}, {"measurement": "koff", "setting": "[11]", "result": 0.00062, "unit": "s⁻¹"}, {"measurement": "kon", "setting": "[11]", "result": "1.78e+06", "unit": "M⁻¹ s⁻¹"}]}
{"binder": "B3", "values": [{"measurement": "IC50", "setting": "[2]", "result": 31.5, "unit": "nM"}, {"measurement": "binding result", "setting": "[3]", "result": "no binding (tested: about 20 nM)"}, {"measurement": "binding result", "setting": "[4]", "result": "no binding (tested: about 10 nM)"}, {"measurement": "EC50", "setting": "[8]", "result": 0.637, "unit": "nM"}, {"measurement": "EC50", "setting": "[9]", "result": 1.99, "unit": "nM"}, {"measurement": "Kd", "setting": "[11]", "result": 2.08, "unit": "nM"}, {"measurement": "koff", "setting": "[11]", "result": 0.000298, "unit": "s⁻¹"}, {"measurement": "kon", "setting": "[11]", "result": 143000, "unit": "M⁻¹ s⁻¹"}]}
{"binder": "B4", "values": [{"measurement": "binding result", "setting": "[3]", "result": "no binding (tested: about 20 nM)"}, {"measurement": "binding result", "setting": "[4]", "result": "no binding (tested: about 10 nM)"}, {"measurement": "EC50", "setting": "[8]", "result": 0.509, "unit": "nM"}, {"measurement": "EC50", "setting": "[9]", "result": 1.46, "unit": "nM"}, {"measurement": "Kd", "setting": "[11]", "result": 486, "unit": "nM"}, {"measurement": "koff", "setting": "[11]", "result": 0.0448, "unit": "s⁻¹"}, {"measurement": "kon", "setting": "[11]", "result": 92200, "unit": "M⁻¹ s⁻¹"}]}
{"binder": "B5", "values": [{"measurement": "binding result", "setting": "[1]", "result": "binds"}]}
{"binder": "B6", "values": [{"measurement": "binding result", "setting": "[3]", "result": "no binding (tested: about 20 nM)"}, {"measurement": "binding result", "setting": "[4]", "result": "no binding (tested: about 10 nM)"}, {"measurement": "Kd", "setting": "[11]", "result": 38.4, "unit": "nM"}, {"measurement": "koff", "setting": "[11]", "result": 0.000943, "unit": "s⁻¹"}, {"measurement": "kon", "setting": "[11]", "result": 24600, "unit": "M⁻¹ s⁻¹"}]}
